Measurements as given in paper PMC8910618, “Cognate DNA Recognition by Engrailed Homeodomain Involves A Conformational Change Controlled via An Electrostatic-Spring-Loaded Latch”.

How the values were obtained:
Details in all cases: protein: recombinant; tags: none (untagged, or SUMO/His tag cleaved by ULP1); 15N or 13C,15N labelled for NMR; 5' overhang 1 nt on each strand, 20 bp
[1] = biological target: T1, engrailed homeodomain (enHD) (UniProt P02836 456-509); assay: NMR titration (1H-15N HSQC, A460 and A507); 300 mM NaCl, 20 mM acetate pH 4, 298 K; NMR: 200 uM enHD, 298 K, 5% D2O; 20 mM MES pH 6 + 25 mM NaCl; 20 mM acetate pH 4 + 300 or 700 mM NaCl; 25 mM phosphate pH 6.8 + 50 mM NaCl. CD: 15 uM enHD and DNA, 20 mM MES pH 6, 25 mM NaCl, room temperature
T1 sequence: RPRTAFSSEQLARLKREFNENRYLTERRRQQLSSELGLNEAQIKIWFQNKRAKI

[2] = biological target: T1, engrailed homeodomain (enHD); assay: NMR titration (1H-15N HSQC, R456 side-chain NH); 700 mM NaCl, 20 mM acetate pH 4, 298 K; NMR: 200 uM enHD, 298 K, 5% D2O; 20 mM MES pH 6 + 25 mM NaCl; 20 mM acetate pH 4 + 300 or 700 mM NaCl; 25 mM phosphate pH 6.8 + 50 mM NaCl. CD: 15 uM enHD and DNA, 20 mM MES pH 6, 25 mM NaCl, room temperature
[3] = biological target: T1, engrailed homeodomain (enHD); assay: NMR titration (1H-15N HSQC, W501 and A460); 50 mM NaCl, 25 mM phosphate pH 6.8, 298 K; stated as sub-uM, too tight to evaluate Kd; NMR: 200 uM enHD, 298 K, 5% D2O; 20 mM MES pH 6 + 25 mM NaCl; 20 mM acetate pH 4 + 300 or 700 mM NaCl; 25 mM phosphate pH 6.8 + 50 mM NaCl. CD: 15 uM enHD and DNA, 20 mM MES pH 6, 25 mM NaCl, room temperature

B1: cognate DNA (same as X-ray structure) (dsDNA)
DNA 1: TTTTGCCATGTAATTACCTAA
DNA 2: ATTAGGTAATTACATGGCAAA
Kd [1]: 95 ± 20 µM | Kd [2]: 170 ± 2 µM | Kd [3]: < 1 µM
